The results in this text go back to article PMC8403554 (Cell, 2019).

First the molecules themselves.
B2: tetrameric βI-tryptase (insect cells) (enzyme)
chain: not shown

The target of series [1] is B2. The series is described as follows: crystal structure.
Series [2] concerns the molecule itself. The series is described as follows: SEC. Background: In gel filtration, larger molecules generally elute earlier.
For series [3], the target named is human βI-tryptase monomer (Homo sapiens, beta-I allele of TPSAB1, UniProt Q15661). Briefly: SPR. A general note: SPR reads the build-up and loss of mass on a sensor chip optically.
human βI-tryptase monomer, sequence (Q15661 31-275): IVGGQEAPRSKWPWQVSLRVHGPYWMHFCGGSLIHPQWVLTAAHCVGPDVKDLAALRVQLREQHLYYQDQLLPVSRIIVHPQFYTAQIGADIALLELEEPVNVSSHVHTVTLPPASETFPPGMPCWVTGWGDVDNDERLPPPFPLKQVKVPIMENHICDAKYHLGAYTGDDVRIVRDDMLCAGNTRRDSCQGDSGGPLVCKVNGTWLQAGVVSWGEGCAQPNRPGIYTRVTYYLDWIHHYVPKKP

B1: soybean trypsin inhibitor (natural protein, UniProt P01070 25-205, looked up)
chain: DFVLDNEGNPLENGGTYYILSDITAFGGIRAAPTGNERCPLTVVQSRNELDKGIGTIISSPYRIRFIAEGHPLSLKFDSFAVIMLCVGIPTEWSVVEDLPEGPAVKIGENKDAMDGWFRLERVSDDEFNNYKLVFCPQQAEDDKCGDIGISIDHDDGTRRLVVSKNKPLVVQFQKLDKESL
B1: the binding result in series [1] is on record as “binds”. In the case of B2, the “stoichiometry N” value in series [2] stood at 4.

B3: humanized 31A.v11 IgG4 anti-tryptase antibody (antibody, V domains shown)
VH: EVQLVESGGGLVQPGGSLRLSCAASGFTFSDYGMVWVRQAPGKGLEWVAFISSGSSTVYYADTMKGRFTISRDNSKNTLYLQMNSLRAEDTAVYYCTRRNYDDWYFDVWGQGTLVTVSS
VL: DIQMTQSPSSLSASVGDRVTITCSASSSVTYMYWYQQKPGKSPKPWIYRTSDLASGVPSRFSGSGSGTDFTLTISSLQPEDFATYYCQHYHSYPLTFGQGTKVEIK
For the molecule B3, in series [3], the “fold improvement in binding affinity (Kd) over the parental 31A clone” value was about 10 fold.

Usually stoichiometry N stands for the number of molecules, sites or subunits per partner or assembly.
